# Biological target: HigC SecB^TA chaperone of the E. coli NT1F31 HigBAC system (E. coli NT1F31)
# Assay: ITC
binder,measurement,value
GELTAESYDDSYLDDEDADWTATGQGQKSAG [gpV^48-78 peptide],Kd,0.25 µM
same,effective KD with 1.5-fold molar excess of the HigA ChAD peptide,6.6 µM
same,stoichiometry N,0.47
"GELTAESYDDSYLAAAAADWTATGQGQKSAG [gpV^48-78 peptide, poly-alanine substitution of the D61DED64 element]",Kd,7 µM
same,stoichiometry N,0.5

# Source: publication doi:10.1101/2024.02.24.581848
